Values joined by “and” are separate entries in the source; they are usually repeats but may differ in a detail not shown here. Equal values may be shown once.
Key:
[1] = target: HIS-tagged FcγR1A (UniProt P12314); experiment: SPR; Biacore T200; His-tagged FcγR1A captured by an anti-HIS antibody on a CM5 chip; antibody as analyte, single-cycle kinetics, 2.5 to 40 nM, 30 min dissociation; HBS-T pH 7.4; bivalent binding model
[2] = target: HIS-tagged FcγR2B (UniProt P31994); experiment: SPR; Biacore T200; His-tagged FcγR2B or FcγR3A captured by an anti-HIS antibody on a CM5 chip; antibody as analyte, single-cycle titration, 25 to 400 nM, 30 min dissociation; HBS-T pH 7.4; KD from fits to the responses at equilibrium
[3] = target: HIS-tagged FcγR3A (UniProt P08637); experiment: as above
[4] = target: HIS-tagged HER2 (Homo sapiens (assumed; trastuzumab target, species not stated)) (UniProt P04626); experiment: SPR; Biacore T200; His-tagged HER2 (4 nM) captured by an anti-HIS antibody on a CM5 chip; antibody as analyte, single-cycle kinetics, 2-fold dilutions 0.5–8 nM, 20 µL/min for 2 min, 60 min dissociation; HBS-T (10 mM HEPES, 150 mM NaCl, 0.05% Tween 20, pH 7.4); bivalent binding model; duplicate

Kd [1]	koff [1]	kon [1]	Kd [2]	Kd [3]	Kd [4]	Substance
9.9 nM	0.001 s⁻¹	110000 M⁻¹ s⁻¹	686 nM	433 nM		HEK Trastuzumab (antibody)
5.6 nM	0.0014 s⁻¹ and 0.0015 s⁻¹	250000 M⁻¹ s⁻¹ and 260000 M⁻¹ s⁻¹	1280 nM and 992 nM	535 nM and 551 nM		Trastuzumab L177N (antibody)
3.8 nM	0.00088 s⁻¹ and 0.0009 s⁻¹	240000 M⁻¹ s⁻¹	666 nM			Trastuzumab T198N (antibody)

The next lines start with the substance.

Substance	Kd [1]	koff [1]	kon [1]	Kd [2]	Kd [3]	Kd [4]
Herceptin (antibody)	4.7 nM			666 nM	267 nM	
Trastuzumab A121N (antibody)	4.8 nM	0.00083 s⁻¹ and 0.00098 s⁻¹	170000 M⁻¹ s⁻¹ and 200000 M⁻¹ s⁻¹	3140 nM and 3740 nM	295 nM and 268 nM	
Trastuzumab L115N (antibody)	6.4 nM and 3.7 nM			269 nM and 338 nM	301 nM and 394 nM	1.13 nM and 1.16 nM
Trastuzumab L182N (antibody)	8.2 nM and 8.1 nM	0.0015 s⁻¹				
Trastuzumab Q160N (antibody)	6.5 nM and 6.7 nM	0.00076 s⁻¹	120000 M⁻¹ s⁻¹ and 110000 M⁻¹ s⁻¹	143 nM	596 nM and 535 nM	
Trastuzumab Q178N (antibody)	2.6 nM and 2.5 nM		370000 M⁻¹ s⁻¹	485 nM	239 nM and 217 nM	

Reference: paper PMC8620955
